Results from patent publication US20210230264A1 (JIANGSU QYUNS THERAPEUTICS, published 2021).

Columns and labels:
[1] = target: T1, human Interleukin-17A (hIL-17A) (human, UniProt Q16552 24-154); assay: SPR, Biacore T200, 25 C, antibody captured on Protein A CM5 chip, hIL-17A in flow, 1:1 model, mean of two runs
T1 construct: also called hIL-17A standard
Procedure: The Protein A was chemically coupled to the CM5 chip, and an appropriate amount of antibody was immobilized by the capture method, so that the Rmax was less than 50 RU, and the capture flow rate was 10 μl/min. The antigen was gradually diluted, and the flow rate of the instrument was switched to 30 μl/min. The diluted antigen was flowed through the reference channel and the channel of immobilized antibody in sequence from low to high concentration, and the running buffer was flowed through as a negative control. After each binding and dissociation was completed, the chip was regenerated with glycine, pH1.5. Fitting was performed with the build-in software in the instrument according to a 1:1 binding model. The association rate constant kₐ, the dissociation rate constant kd, and the equilibrium dissociation constant KD values of the antibody were calculated.

[2] = target: T1, human Interleukin-17A (hIL-17A); assay: cell-based or functional assay

T1 sequence (Q16552 24-154): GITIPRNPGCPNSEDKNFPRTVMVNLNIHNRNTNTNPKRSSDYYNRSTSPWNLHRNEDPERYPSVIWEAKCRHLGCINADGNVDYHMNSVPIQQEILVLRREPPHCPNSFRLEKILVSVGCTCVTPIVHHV

Row | Binder | Kd [1] | IC50 (read off the curve) [2] | koff [1] | kon [1]
1 | anti-human interleukin 17A monoclonal antibody QX002N (antibody, human IgG1, kappa, V domains shown, Claim 27 joins 7/8 with 10/11; Expressed in ExpiCHO-S cells and purified on Protein A; also called 37-5; humanized clone 37 #) VH: EVQLQESGPGLVKPSETLSLTCTVSGIDLSLFYMSWIRQPPGKGLEWIGTIHEVASSYYASWAKGRVTISKDTSKNQFSLKLSSVTAADTAVYYCARETYSSRYPYPNIWGQGTLVTVSS VL: DIQMTQSPSSVSASVGDRVTITCQASQNIGGSLAWYQQKPGKAPKLLIYGASSLASGVPSRFSGSGSGTDFTLTISSLQPEDFATYYCQSYNTISTYGLAFGGGTKVEIKR | 0.00707 nM | ~0.02 µg/mL | – | –
2 | Ixekizumab (IXE) (antibody, V domains shown) VH: QVQLVQSGAEVKKPGSSVKVSCKASGYSFTDYHIHWVRQAPGQGLEWMGVINPMYGTTDYNQRFKGRVTITADESTSTAYMELSSLRSEDTAVYYCARYDYFTGTGVYWGQGTLVTVSS VL: DIVMTQTPLSLSVTPGQPASISCRSSRSLVHSRGNTYLHWYLQKPGQSPQLLIYKVSNRFIGVPDRFSGSGSGTDFTLKISRVEAEDVGVYYCSQSTHLPFTFGQGTKLEIKR | 0.0154 nM | – | 2.58e-05 s⁻¹ | 1.7e+06 M⁻¹ s⁻¹
